The results in this text go back to publication PMC4749557 (2015).

First the molecules themselves.
B3: human PRDM14 (residues 238–487) (domain or fragment)
chain: LPQTLDKDSLQLPEGLCLMQTVFGEVPHFGVFCSSFIAKGVRFGPFQGKVVNASEVKTYGDNSVMWEIFEDGHLSHFIDGKGGTGNWMSYVNCARFPKEQNLVAVQCQGHIFYESCKEIHQNQELLVWYGDCYEKFLDIPVSLQVTEPGKQPSGPSEESAEGYRCERCGKVFTYKYYRDKHLKYTPCVDKGDRKFPCSLCKRSFEKRDRLRIHILHVHEKHRPHKCSTCGKCFSQSSSLNKHMRVHSGDR
modifications: biotin (biotin-acceptor tag)

Assay [1] concerns the target Mb(hPRDM14_S14), purified monobody (biotin).
Assay [2] has as its target T1, recombinant Mtgr1 NHR1 domain (residues 98–206) (mouse, UniProt O70374 98-206, H200K, biotin (biotin-acceptor tag)).
T1 sequence: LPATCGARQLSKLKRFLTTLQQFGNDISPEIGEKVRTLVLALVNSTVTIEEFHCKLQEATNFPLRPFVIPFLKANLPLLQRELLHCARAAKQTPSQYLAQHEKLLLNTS
Nature of the assay: Mtgr1 immobilized on beads.

The target of assay [3] is T1, recombinant Mtgr1 NHR1 domain (residues …). In words: Prdm14 immobilized on beads.
In assay [4] the target is B3.

B1: recombinant Prdm14 pre-SET+SET domains (residues 184–373) (domain or fragment)
chain: GFNFTEEELSFVLYGAIASPEHPTDLQHAISGILVPTESSGSNHLHKTLDKDSLQLPEGLCLMQTSFGDVPHFGVFCSDFIAKGVRFGPFRGRVVNASEVKAHRDNSRMWEIFEDGHLSHFIDGKGSGNWMSYVNCARFPKEQNLLAVQHQGQIFYESCRDIQRNQELLVWYGNGYEKFLGVPMNLRVTE
modifications: biotin (biotin-acceptor tag)
Usually Kd stands for the equilibrium constant for the complex coming apart. Take B1: the Kd in assay [1] was determined as 1.7 nM; in assay [2], 11 nM; in assay [3], 7.1 nM.

B2: Mb(hPRDM14_S4), purified monobody (designed binder)
chain: GSVSSVPTKLEVVAATPTSLLISWDAPAVTVDLYFITYGETGGNSPVQKFTVPGSKSTATISGLKPGVDYTITVYAQYYYRGWYVGSPISINYRT
modifications: biotin
In turn, B2 displayed a Kd in assay [4] of 38 nM. On to B3, for which the Kd in assay [1] amounted to 2.8 nM.
